Sequences and labels used below:
B1: 101C4F12 chimeric antibody (antibody, V domains shown)
VH: QVQLKESGPGQVAPSQSLSIACTVSGFSLSSYGVHWVRQPPGKGLEWLGVIWAGGSTNYDSALMSRLTISKDNSRTRVFLKMNSLQTDDTAIYYCARSLYGNSLDSWGPGTTLTVSS
VL: DIVMTQSPSSLTVTAGEKVTMSCKSSQSLLNSGNQRNYLTWYQQKPGQPPRLLIYWSSTRDSGVPDRFTGSGSRTDFTLTISSVQAEDLAVYYCQNNFIYPLTFGAGTKLELK
B2: 56E8F10F4 chimeric antibody (antibody, V domains shown)
VH: DVQLVESGGGLVQPGGSRKLSCTASGFTFNSFGMNWVRQAPEKGLEWVAFISGGSNTIHYLDTVKGRFTISRDNPKNTLFLQMTSLRSEDTAMYYCTRLALGNAMDYWGQGTSVIVSS
VL: DIVMTQSPSSLTVTAGEKVTMSCKSSQSLLNSGNQKNYLTWYQQKPGQPPKLLIYWASTRESGVPDRFTGSGSGTYFTLTISSVQAADLAVYYCQNDYYFPFTFGSGTKLEIK
B3: 10G7G11 chimeric antibody (antibody, V domains shown)
VH: QVQLKESGPGLVAPSQSLSITCTISGFSLNTYGVHWVRQPPGKGLEWLVVMLSDGNTVYNSSLKSRLSLTKDNSKSQLLLKMNSLQTDDTAIYYCARHKAYGNAMDYWGQGTSVTVSS
VL: B2 VL with S22T, L30F, K36R, Q44R, I81V, A87E, D97A, I112K
B4: 58G2C2 chimeric antibody (antibody, V domains shown)
VH: QVHLQQSGAEVVRPGTSVKVSCKASGYAFTNYLIEWIKKRPGQGLEWVGVINPGRSGTNYNEKFKGKATLTADKSSSTAYMQLSSLTSDDSAVYFCARTRYGGNAMDYWGQGTSVTVSS
VL: B2 VL with K51T, Y55F, S58F, Y76D, S82N, A87E, D97S, Y99S, F100Y
B5: 15C2B7 chimeric antibody (antibody, V domains shown)
VH: QIQLVQSGPELRKPGETVKISCKASGYTFTNYGMNWVKQAPGKGLKWMAWINANTGEPTYAEEFKGRFAFSLETSARSAYLQINSLKNEDTATYFCARLTRGNSFDYWGQGTTLTVSS
VL: B2 VL with E17G, M21V, Y76D, A86T, A87E, D97N, F102L, S106A, I112L
B6: 103F4D4 chimeric antibody (antibody, V domains shown)
VH: QVQLQQSGAELARPGASVKMSCKASGYTFPTYSIHWLKQGPGQGLEWIGYINPSTIYTNYNQKFKYKATLTADKSSSTAYIQLSSLTSDDSAVYYCAREGYGRGNAMDYWGQGTSVTVSS
VL: DIVMTQSPSSQTVTAGEKVTLSCRSSQSLLNGGNQKNYLTWYQQKPGQPPKLLIYWASTRESGVPDRFTGSGSGTYFTFTISSVQAEDLAVYYCQNAYFYPFTFGAGTKLELK
B7: 20F1E10 chimeric antibody (antibody, V domains shown)
VH: QIQLVQSGPELKKPGETVKISCKASGYTFTKYGMNWVRQAPGKGLKWMGWISTNTGEPTYAEEFKGRFAFSLETSASTAFLQINNLKNEDTATYFCARLVRGNSFDFWGQGITLTVSS
VL: DIVMTQSPSSLTVTAGEKVTMSCKSSQSLFNSGNQRNYLTWYQQKPGQPPKLLIYWASTRESGVPDRFTGSGSGTDFILTITKVQAEDLAVYYCQNVYSYPLTFGAGTKLELK
B8: 110C12B6 chimeric antibody (antibody, V domains shown)
VH: EVQLQQSGPELVKPGASVKMSCKSSGYTFTGFLMHWVKQKPGQGLEWIGYINPYNDGTKYSEKFKGKATLTSDKSSSTAYMELSSLTSDDSAVYYCGRLDYGNAMDYWGQGTSVTVSS
VL: B7 VL with S22R, K24R, S26T, I78T, T82S, K83S, V97A, S99Y, A106V, L112R
B9: 116A8B7 chimeric antibody (antibody, V domains shown)
VH: B8 VH
VL: B7 VL with S22R, K24R, S26T, I78T, T82S, K83S, V97A, S99Y, A106V, L112R
B10: 113G12E5E6 chimeric antibody (antibody, V domains shown)
VH: QVQLKQSGPGLVQPSQSLSITCTVSDFSLTKYGVHWFRQSPGKGLEWLGVIWTGGNTDYNPALIPRLSFRKDNSKSQVFFKMNSLQSSDTAVYYCARNGYYGNAMDYWGQGTSVTVSS
VL: DIVMTQSPSSLTVTAGERVTMSCKPSQSLLNSGNQKNYLAWYQQKPGQPPKLLLYWASTRESGVPDRFKGSGSGTDFTLTISSVQAEDLAVYYCQNAYFYPCTFGGGTKLEMK
B11: 105F7G12 chimeric antibody (antibody, V domains shown)
VH: B10 VH
VL: B10 VL with P25S
B12: 119G11D9 chimeric antibody (antibody, V domains shown)
VH: B8 VH with S24A, Y80F, G97A
VL: DIVMTQSPSSLTVTAGERVTMRCRSTQSLFNSGNQKNYLTWYQQKPGQPPKLLIYWASTRESGVPDRFTGGGSGTDFTLTISSVQAEDLAVYYCQNAYYYPLTFGAGTKLERK
B13: 84E9E12 chimeric antibody (antibody, V domains shown)
VH: DVQLQESGPGLVKPSQSLSLSCSVTGYSITSGYFWTWFRQFPGNKLEWMGYISYDGSNNYNPSLKNRISITRDTSKNQFFLKLNSVTTEDTATYYCASFRFFAYWGQGTLVTVSA
VL: DIVMTQSPSSLTVTTGEKVTMSCKSSQSVFNSGNQKNYLTWYQQKPGQPPKLLVYWASTRESGVPARFTGSGSGTVFTLTISSVQAEDLAVYYCQNDYYFPLTFGAGTRLELK
B14: 44F6B11 chimeric antibody (antibody, V domains shown)
VH: EVQLVESGGDLVKPGGSLKLSCAASGFTFSNYGMSWVRQTPDKRLEWVATFSYGDSHNYYSDSVKGRFTISRDIAKDALYLQMSSLRSEDTAIYYCARFGRGNTMDYWGQGTSVTVSL
VL: DIVMTQSPSSLTVTAGEKVIMSCKSNQSLLNSGNQKKYLTWYQQKPGQSPKLLIYWASTRESGVPDRFTGSESGTDFTLTISSVRAEDLAVYYCQNGYSYPFTFGSGTKLEMK
B15: 103A10B2 chimeric antibody (antibody, V domains shown)
VH: QVQLKESGPGLVAPSQSLSITCTVSGLSLTSFGVHWIRQPPGKGLEWLGVIWAGGSTNYNSALMSRLSISKDNSKSQVYLKMHSLQTDDTAMYYCARSLYGNSFDYWGQGTALTVSS
VL: DIVMTQSPSSLTVTPGEKVTMSCRSSMSLFNSGNQKSYLSWYHQKPGQPPKLLIYWASTRDSGVPVRFTGSGSGTDFTLTISSVQAEDLAVYYCHNDYIYPLTFGAGTKLELK
B16: 65G8B8 chimeric antibody (antibody, V domains shown)
VH: QVQLKESGPGLVAPSQSLSITCTVSGFSLTSYGVSWVRQPPGKGLEWLGVIWGDGNTIYHSALKSRLSISRDNSKRQVFLKVNSLQIDDTATYYCAKQGLYGHAMDYWGQGTSVIVSS
VL: DIMMTQSPSSLTVTTGEKVTLTCKSSQSLLNSGNLKNYLTWYQQKPGHPPKLLIYWASTRESGVPVRFTGSGSGTDFTLTISSVQAEDLTVYYCQNVYIYPFTFGSGTKLEMR
B17: 78C10B6G4 chimeric antibody (antibody, V domains shown)
VH: QVQLKESGPGLVAPSQSLSITCTVSGFSLINYGVSWVRQPPGKGLEWLGVIRGDGNTNYQSALRSRLSIRKDTSKSQVFLKLNSVHTDGTATYYCAKVGRGNAMDHWGQGISVIVSS
VL: DIVMTQSPSSLTVTAGEKVTMSCKSSQSLLNSGNQKNYLTWYQQRPGQPPKLLIYRASSRESGVPVRFTGSGSGTDFTLTISSVQAEDLAVYYCQNDYIYPYTFGGGTKLEMN

The values below come from patent US20230330253A1 (LANOVA MEDICINES, published 2023).

Where a chain is given by its changes, count along the chain named.

The test deals with human claudin 18.2 (CLDN18.2) (human). Description: cell-based or functional assay.
Take B1: the “Fluorescence, pHAb internalization on MKN45-CLDN18.2 cells, 20 nM antibody, normalized by DAR” value (shortened to “Fluorescence … 20 nM antibody, normalized by DAR”) is 15200 and the “Fluorescence, pHAb internalization on MKN45-CLDN18.2 cells, 100 nM antibody, normalized by DAR” value worked out at 44400.
On to B2, for which the “Fluorescence … 20 nM antibody, normalized by DAR” value stood at 19900 and the “Fluorescence, pHAb internalization on MKN45-CLDN18.2 cells, 100 nM antibody, normalized by DAR” value was 28700.
Taken in the same sequence, the figures for B3 were 9600 and 35500.
Turning to B4, the “Fluorescence … 20 nM antibody, normalized by DAR” value was determined as 18600 and the “Fluorescence, pHAb internalization on MKN45-CLDN18.2 cells, 100 nM antibody, normalized by DAR” value came out at 33100.
Taken in the same sequence, the figures for B5 were 19400 and 33200.
B6: the “Fluorescence … 20 nM antibody, normalized by DAR” value was 31200 and the “Fluorescence, pHAb internalization on MKN45-CLDN18.2 cells, 100 nM antibody, normalized by DAR” value stood at 49100.
Consider B7, for which the “Fluorescence … 20 nM antibody, normalized by DAR” value was determined as 21100 and the “Fluorescence, pHAb internalization on MKN45-CLDN18.2 cells, 100 nM antibody, normalized by DAR” value was 45100.
For the molecule B8, the “Fluorescence … 20 nM antibody, normalized by DAR” value worked out at 19300 and the “Fluorescence, pHAb internalization on MKN45-CLDN18.2 cells, 100 nM antibody, normalized by DAR” value stood at 40100.
For B9, in that order: 21400 and 41700.
Taken in the same sequence, the figures for B10 were 11000 and 28900.
In the case of B11, the “Fluorescence … 20 nM antibody, normalized by DAR” value turned out to be 14800 and the “Fluorescence, pHAb internalization on MKN45-CLDN18.2 cells, 100 nM antibody, normalized by DAR” value came out at 43100.
For B12, in that order: 21400 and 34000.
Turning to B13, the “Fluorescence … 20 nM antibody, normalized by DAR” value came to 18700 and the “Fluorescence, pHAb internalization on MKN45-CLDN18.2 cells, 100 nM antibody, normalized by DAR” value turned out to be 35100.
For B14, in that order: 18400 and 26100.
For B15, in that order: 12000 and 31300.
In the case of B16, the “Fluorescence … 20 nM antibody, normalized by DAR” value was 15100 and the “Fluorescence, pHAb internalization on MKN45-CLDN18.2 cells, 100 nM antibody, normalized by DAR” value turned out to be 20500.
For B17, in that order: 16200 and 29100.
